# Measurements taken from the DeepSol protein solubility set.
# Experiment: soluble on expression in E. coli; label from the status in PepcDB or PDB records
row,Sequence,soluble on expression in E. coli
1,GLLAIFIVFAISWGALVEITPLIFQKQTTESVENLRVYTPLEMEGRDIYIREGCNVCHSQMVRPFRSETERYGHYSVAGESVWEHPFLWGSKRTGPDLARVGGRYSDEWHRVHLLDPRELVPESNMPGFPWLAENVLDGKLTQKKLEVFRDQFGVPYEDETIANAAKEVEGKTEMDAIIAYLQSLGH,not soluble
2,GMAFMEKIFPDILEAIRNEEIIKESKKIPMPYFGLFALVIFDKVKELGSETSLYEIGEEFGKMLSPKNIEELKKIFKLMNFGDLEIDENKILLKNPPYKIKLSNPPYQWVSKEEPIHDFIAGILAGCLEEIFYYYFVVNEVECVSQGKDKCVFEVKEVDELNK,soluble
3,GMAKKTLILYYSWSGETKKMAEKINSEIKDSELKEVKVSEGTFDADMYKTSDIALDQIQGNKDFPEIQLDNIDYNNYDLILIGSPVWSGYPATPIKTLLDQMKNYRGEVASFFTSAGTNHKAYVSHFNEWADGLNVIGVARDDSEVDKWSK,soluble
4,GMANLLSTCTSESGNIQHISPQNAGWEYVGFDVWQLKAGESITLPSDERERCLVLVAGLASVKAADSFFYRIGQRMSPFERIPAYSVYLPHHTEAKVTAETDLELAVCSAPGFGELPVRLISPQEVGVEHRGKGRNQRLVHNILPDSQLADSLLVVEVYTNAGATSSWPAHKHDTAVEGQETYLEETYYHRFNPPQGFCLQRVYTDDRSLDECMAVYNRDVVKVPKGYHPVATIAGYDNYYLNVMAGPLRKWRFTWEENHAWINSPDYPR,soluble
5,GMASVLSAATATDQGPVRENNQDACLADGILYAVADGFGARGHHASATALKTLSAGFAAAPDRDGLLEAVQQANLRVFELLGDEPTVSGTTLTAVAVFEPGQGGPLVVNIGDSPLYRIRDGHMEQLTDDHSVAGELVRMGEITRHEARWHPQRHLLTRALGIGPHIGPDVFGIDCGPGDRLLISSDGLFAAADEALIVDAATSPDPQVAVRRLVEVANDAGGSDNTTVVVIDLG,soluble
6,GMATVRLLDDAEISTLPEVKAVFDDIRATRGSDFVNNIWRGLANDPALLKRTWEQVKTVMVGEGALDPLTREMIYLAVSTANSCSYCAHSHTAAARAKGMTPAQHAEVLAIIGLAAQTNALVTAMQIPVDEAFLVDGK,soluble
7,GMATYNYPEFGAGLWHFANYIDRYAVDGYGPALSTIDQINAAKEVGELSYVDLPYPFTPGVTLSEVKDALKDAGLKAIGITPEIYLQKWSRGAFTNPDPAARAAAFELMHESAGIVRELGANYVKVWPGQDGWDYPFQVSHKNLWKLAVDGMRDLAGANPDVKFAIEYKPREPRVKMTWDSAARTLLGIEDIGLDNVGVLLDFGHALYGGESPADSAQLIIDRGRLFGMDVNDNLRGWDDDLVVGTVHMTEIFEFFYVLKINNWQGVWQLDQFPFRENHVEAAQLSIRFLKHIYRALDKLDIPALQAAQEAQNPLQAQRIVQDALLSSITVSE,soluble
8,GMEFYEVIKKRKSIKKFEQTAIDRDKLLKIIDMAMRAPSWKNKTPYKFIVVESDKLKLDIANAIENKTSAASEAVLNSPMTIVAVANPEESGDVSGKEIYLIDTAIAMEHIVLGATDEGYGTCWIAAFNENKIKEALKIPDNLRVVALTPLGVPKDSAEDEPHHPKKDMDEYLYIDKWGTSFMESNVKILEKN,soluble
9,GMENEENSAREQEADDFLHIASVKEDWGGDGRGRMNLSGRRTAIAKEYLPRQYQFFDTNTVMEKQGWRVRGMPDNIAPGSRRLLTWHDSGASTSRVVLPPKFEAPSGIFTADLEIFVIKGAIQLGEWQLNKHSYSFIPAGVRIGSWKVLGGEEAEILWMENGSVPLEYKYAQEDHPDARLSDFIPALDSKLLPWGKADTVQFVQANKKWLRKDINGGGVWLLAILPHFDNKYQMIQPYNEEGYCLTGYCDVGDYRIVKDHYWYCPSFSTLPRHITDDGGLFFVRVDRDLSKVATVLSYAPQDT,soluble
10,GMEQQHPTIHTLKIETEFFKAVKERRKTFEIRKNDRNFQVGDILILEEYMNGMYLDDECEAEVIYITDYAQREGYVVLGIELH,soluble
11,GMFNESDAPQPPKVLSTPLEIAANLRQLQESHDPLIITFHDRSHRFQSYVVHVDRESNTLALDEMIPRDGEKFIENGEHFRVEGFHDGVRIAWECDHALKISEVDGHRCYSGPLPQEVTYHQRRNAFRAALKLSQLVDIILDGAHLKGNGAMRGKLLDISATGCKLRFEGNVEDRLQLGQVYERFKAGNPLGLVDTMVELRHLHYEERINTTFAGVRFHNLSGQAQRKIESFVYQLQREARRFDKDDY,soluble
12,GMGSYQLLVPPPEALSKPLSVPTRLLLGPGPSNLAPRVLAAGSLRMIGHMQKEMLQIMEEIKQGIQYVFQTRNPLTLVVSGSGHCAMETALFNLLEPGDSFLTGTNGIWGMRAAEIADRIGARVHQMIKKPGEHYTLQEVEEGLAQHKPVLLFLVHGESSTGVVQPLDGFGELCHRYQCLLLVDSVASLGGVPIYMDQQGIDIMYSSSQKVLNAPPGISLISFNDKAKYKVYSRKTKPVSFYTDITYLAKLWGCEGETRVIHHTTPVTSLYCLRESLALIAEQGLENCWRRHREATAHLHKHLQEMGLKFFVKDPEIRLPTITTVTVPAGYNWRDIVSYVLDHFSIEISGGLGPTEERVLRIGLLGYNATTENVDRVAEALREALQHCPKNKL,soluble
13,GMINTKEDFLLLIKQIEQKSGYKKPKAFGIARLDRGQLNKNKILQASFALINYEQNFGSAAIMLEAFMQRGVEIDFNASEFVQTLKLEDIDFALSCFKPFLEEDGHQNIDLLKIIKDKFKDDEFSFVCLFEDKEPLSVESIYLKLYLLSTKKVPLRSINLNGAFGLLSNVAWSDDKPIELEYLRANEMRLKMSNQYPKIDFVDKFPRFLAHIIPEDNTRILESSKVRMGASLAAGTTIMPGASYVNFNAGTTGACMVEGRISSSAIVGEGSDVGGGASILGVLSGTSGNAISVGKACLLGANSVTGIPLGDNCIVDAGIAVLEGTKFLLKDAEELAKLNPYFNFDKEIYKGLELKGLNGLHFRQDSISGAMIVALNKKAVKLNEALH,soluble
14,GMLPRLCCLEKGPNGYGFHLHGEKGKLGQYIRLVEPGSPAEKAGLLAGDRLVEVNGENVEKETHQQVVSRIRAALNAVRLLVVDPEEDSFL,soluble
15,GMMNKPAPRELEVIRSTYITPHMLRITLGGAGLAGFPADQESAYIKLLFPQAGERPLMRTYTIRQQRDDEIDVDFVLHDTDGPASSWAKTAQVGELIQIGGPGLKKLINFEADWFLLAGDMTALPAISVNLAKLPNNAVGYAVIEVLSEADIQPLVHPEHVELHWVINPEADPEGRPLVERIAQLPWLAGEPAVWIACEFNSMRALRRHFKQAHALPKSHFYTSSYWKIGCNEGEHKLVKQEDEQLENGASV,soluble
16,GMMNTTQEGRQRLAERLADTVAQALEADLAKRERALLVVSGGSTPKPFFTSLAAKALPWARVDVTLADERWVTADDADSNARLVRETLLVGPAAEACFHPLTTDDDTPEAGVETVAERLESLPWPASAVILGMGGDGHTASLFPDSEQLATALETTSAAVVVHAPSVPQARITLSASRLADAGLHVLHITGNDKRRVLAEALAGDDVRQLPIRAFLSQPIATYWAP,soluble
17,GMPTLEMPVAAVLDSTVGSSEALPDFTSDRYKDAYSRINAIVIEGEQEAHDNYIAIGTLLPDHVEELKRLAKMEMRHKKGFTACGKNLGVEADMDFAREFFAPLRDNFQTALGQGKTPTCLLIQALLIEAFAISAYHTYIPVSDPFARKITEGVVKDEYTHLNYGEAWLKANLESCREELLEANRENLPLIRRMLDQVAGDAAVLQMDKEDLIEDFLIAYQESLTEIGFNTREITRMAAAALVS,soluble
18,GMQGKKFISPGAWFSMNYPSDWNEFEDGEGSFLFYNPDVWTGNFRISAFKGNASYGKDAIRQELKENDSASLVKIGTWDCAYSKEMFQEEGTYYTSHLWITGTGNIAFECSFTVPKGGSAKEAEEVIATLEARKEGEKYPAELIPVRLSEIYQINEGYEWVVSTVKQELKKDFQGVEEDLEKIQQVIDSGKISPKKKDEWLAIGITVCAILTNEVEGMEWKTLIDGNREVPVLEYQGRTIDPMKIAWSKVKAGQPCNIAEAYQSAIDHH,soluble
19,GMQMNNHIRLRKAEGKWVIRTDSAVLGETLNAIELTEGSRDPVIYFPREDVAMVMFDKSEKVTACPLKGEASYYSIVGASGTLKDAAWSYESPKEGLEAIAGYLAFAPDCTKVGQY,soluble
